In paper PMC9929448:

Legend:
[1] = molecular target: Noggin (Homo sapiens) (UniProt Q13253); experiment: SPR; details: cited from earlier work
[2] = molecular target: Noggin (residues 28-232) (human (from the UniProt entry Q13253)) (UniProt Q13253); experiment: BLI; biotinylated Noggin (4 ug/mL) immobilised on streptavidin-coated biosensors, BMP-2 1 to 22.8 nM in solution; 30 °C; 50 mM sodium citrate pH 6.8, 150 mM NaCl, 1 mM magnesium acetate, 0.02% CHAPS; 1:1 interaction model; three repetitions
[3] = molecular target: BMP-2 N102D mutant, mature form (human); experiment: SDS-PAGE under reducing and nonreducing conditions; purified, refolded protein on 4 to 20% SDS-PAGE, Coomassie blue; covalent (disulphide) dimer
[4] = molecular target: T1, Bone morphogenetic protein 2 (BMP-2), wild type, mature form (human); experiment: as above
T1 sequence (P12643 whole entry, looked up): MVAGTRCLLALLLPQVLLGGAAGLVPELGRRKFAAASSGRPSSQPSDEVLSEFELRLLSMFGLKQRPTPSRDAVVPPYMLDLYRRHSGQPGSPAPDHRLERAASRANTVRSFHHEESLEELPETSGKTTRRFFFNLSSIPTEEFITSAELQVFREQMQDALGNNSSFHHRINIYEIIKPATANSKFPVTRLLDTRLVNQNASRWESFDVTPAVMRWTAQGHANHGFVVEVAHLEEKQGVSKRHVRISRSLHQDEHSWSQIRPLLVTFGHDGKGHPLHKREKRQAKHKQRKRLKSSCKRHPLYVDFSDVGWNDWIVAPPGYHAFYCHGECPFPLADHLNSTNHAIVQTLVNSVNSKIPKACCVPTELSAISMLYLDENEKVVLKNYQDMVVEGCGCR

Chain of Noggin (residues 28-232) (human (Q13253 other isoform, or with tags, fused parts or gaps): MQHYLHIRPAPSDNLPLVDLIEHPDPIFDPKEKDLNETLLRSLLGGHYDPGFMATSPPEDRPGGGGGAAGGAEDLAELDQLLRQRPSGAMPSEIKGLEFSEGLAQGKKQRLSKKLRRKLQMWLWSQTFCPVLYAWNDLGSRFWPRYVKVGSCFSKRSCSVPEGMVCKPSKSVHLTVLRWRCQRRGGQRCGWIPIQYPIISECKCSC
Chain of Noggin (Homo sapiens) (Q13253 28-232): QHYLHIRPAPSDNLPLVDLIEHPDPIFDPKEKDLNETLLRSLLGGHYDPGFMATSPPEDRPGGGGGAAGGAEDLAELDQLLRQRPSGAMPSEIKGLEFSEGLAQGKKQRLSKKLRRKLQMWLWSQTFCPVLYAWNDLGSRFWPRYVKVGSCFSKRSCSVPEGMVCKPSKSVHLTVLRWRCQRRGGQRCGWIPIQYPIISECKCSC

| Substance | Kd [1] [nM] | Kd [2] [nM] | koff [2] [s⁻¹] | kon [2] [M⁻¹ s⁻¹] | stoichiometry N [3] | stoichiometry N [2] | stoichiometry N [4] |
| --- | --- | --- | --- | --- | --- | --- | --- |
| BMP-2 (from UniProt P12643) | 0.6 |  |  |  |  |  |  |
| BMP-2 N102D mutant, mature form (ligand) |  | 0.3 | 0.0007 | 2.3e+06 | 2 |  |  |
| Bone morphogenetic protein 2 (BMP-2), wild type, mature form (ligand) |  | 0.36 | 0.00042 | 1.2e+06 |  | 1 | 2 |
